Columns and labels:
[1] = biological target: T1, 191P4D12 (aa 1-31, 147-346), mFc-C1C2, fusion protein (human, UniProt Q96NY8 1-346); experiment: Western blot of purified mFc fusion proteins (non-reduced SDS-PAGE), probed with Ha22-2(2,4)6.1-biotin and streptavidin-HRP
T1 construct: Expressed in 293T cells and purified; also called C1C2 fusion construct; not shown: murine Fc
T1 sequence: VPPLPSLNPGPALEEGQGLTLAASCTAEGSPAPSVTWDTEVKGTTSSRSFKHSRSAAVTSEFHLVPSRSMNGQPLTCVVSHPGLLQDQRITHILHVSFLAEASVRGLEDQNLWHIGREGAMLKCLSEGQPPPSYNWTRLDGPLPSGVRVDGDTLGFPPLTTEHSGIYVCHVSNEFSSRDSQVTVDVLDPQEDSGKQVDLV
Experimental: To further corroborate the results set forth in FIG. 10, a Western Blot analysis was performed. Briefly, the entire extracellular portion of 191P4D12 (full length), as well as specific domains set forth in Table VI were expressed in 293T cells as murine Fc fusion proteins and purified. Goat anti-mouse-HRP were used as a control.

[2] = biological target: T2, 191P4D12 (aa 1-31, 147-510), C1C2, Rat1(E) expressing line (human, UniProt Q96NY8 1-510); experiment: FACS on Rat1(E) cells expressing the C1C2 construct [Continued]
T2 construct: Deletion construct on the surface of Rat1(E) cells; also called C1C2 domain expressing cells
T2 sequence: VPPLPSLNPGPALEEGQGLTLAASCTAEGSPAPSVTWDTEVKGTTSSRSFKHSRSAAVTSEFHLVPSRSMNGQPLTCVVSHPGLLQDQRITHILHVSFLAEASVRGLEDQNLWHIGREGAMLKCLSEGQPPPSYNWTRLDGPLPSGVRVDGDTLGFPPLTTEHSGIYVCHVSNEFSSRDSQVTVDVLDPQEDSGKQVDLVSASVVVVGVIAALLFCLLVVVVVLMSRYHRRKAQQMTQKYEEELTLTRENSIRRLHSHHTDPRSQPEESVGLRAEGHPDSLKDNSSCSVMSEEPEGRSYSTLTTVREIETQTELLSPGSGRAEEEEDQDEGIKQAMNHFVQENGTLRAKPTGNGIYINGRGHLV

[3] = biological target: T3, Rat 191P4D12 (on PC3 cells) (rat, UniProt D3ZET1 31-509); experiment: FACS titration on PC3 cells expressing the rat ortholog
T3 construct: whole, on cells; also called PC3-rat-191P4D12; Rat ortholog
T3 sequence: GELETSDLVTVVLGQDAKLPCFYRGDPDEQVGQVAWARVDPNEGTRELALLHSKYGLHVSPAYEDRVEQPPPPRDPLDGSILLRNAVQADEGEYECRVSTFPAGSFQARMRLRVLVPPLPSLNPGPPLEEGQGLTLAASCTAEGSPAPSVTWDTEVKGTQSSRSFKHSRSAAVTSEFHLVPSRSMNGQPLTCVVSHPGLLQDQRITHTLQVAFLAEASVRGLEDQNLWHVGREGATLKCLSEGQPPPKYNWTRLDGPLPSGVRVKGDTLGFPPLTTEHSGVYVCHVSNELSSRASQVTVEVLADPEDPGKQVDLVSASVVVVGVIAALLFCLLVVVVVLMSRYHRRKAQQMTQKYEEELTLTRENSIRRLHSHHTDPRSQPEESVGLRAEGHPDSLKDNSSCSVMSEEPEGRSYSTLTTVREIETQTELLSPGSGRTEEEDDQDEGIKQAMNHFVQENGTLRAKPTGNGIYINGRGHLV

[4] = biological target: T4, Murine ortholog of 191P4D12, wild type (on PC3 cells) (mouse, UniProt Q8R007 31-508); experiment: FACS on PC3 cells expressing the murine ortholog
T4 construct: whole, on cells; also called mouse 191P4D12
T4 sequence (looked up): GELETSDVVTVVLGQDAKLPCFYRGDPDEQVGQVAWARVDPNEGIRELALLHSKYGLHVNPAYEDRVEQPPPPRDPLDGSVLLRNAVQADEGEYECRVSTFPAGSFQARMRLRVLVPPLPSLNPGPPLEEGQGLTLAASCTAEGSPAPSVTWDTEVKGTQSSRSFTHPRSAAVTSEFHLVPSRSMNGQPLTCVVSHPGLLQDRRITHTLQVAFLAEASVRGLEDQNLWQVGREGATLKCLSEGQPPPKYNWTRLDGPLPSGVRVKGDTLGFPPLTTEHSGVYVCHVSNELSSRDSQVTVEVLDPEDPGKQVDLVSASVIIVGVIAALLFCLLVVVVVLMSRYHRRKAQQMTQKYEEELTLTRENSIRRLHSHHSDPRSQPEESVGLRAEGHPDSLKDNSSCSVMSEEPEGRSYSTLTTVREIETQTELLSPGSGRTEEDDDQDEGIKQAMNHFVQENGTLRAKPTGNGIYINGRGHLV
Excerpt: (§1) The 191P4D12 protein of human, cynomolgus, rat and murine origin was overexpressed recombinantly in a PC3 cell line to determine cross-reactivity of Ha22-2(2,4)6.1 to these orthologs. It was shown that Ha22-2(2,4)6.1 strongly cross-reacts with cynomolgus and rat orthologs of 191P4D12 (FIG. 23).

[5] = biological target: T5, 191P4D12 (human, wild type, on cells) (human, UniProt Q96NY8 32-510); experiment: FACS on PC3-191P4D12 cells
T5 construct: 510 amino acid ORF expressed on PC3, RAT/Rat1(E) cells and present in cancer cell lines and tumor specimens; also called human 191P4D12; wild-type 191P4D12
T5 sequence: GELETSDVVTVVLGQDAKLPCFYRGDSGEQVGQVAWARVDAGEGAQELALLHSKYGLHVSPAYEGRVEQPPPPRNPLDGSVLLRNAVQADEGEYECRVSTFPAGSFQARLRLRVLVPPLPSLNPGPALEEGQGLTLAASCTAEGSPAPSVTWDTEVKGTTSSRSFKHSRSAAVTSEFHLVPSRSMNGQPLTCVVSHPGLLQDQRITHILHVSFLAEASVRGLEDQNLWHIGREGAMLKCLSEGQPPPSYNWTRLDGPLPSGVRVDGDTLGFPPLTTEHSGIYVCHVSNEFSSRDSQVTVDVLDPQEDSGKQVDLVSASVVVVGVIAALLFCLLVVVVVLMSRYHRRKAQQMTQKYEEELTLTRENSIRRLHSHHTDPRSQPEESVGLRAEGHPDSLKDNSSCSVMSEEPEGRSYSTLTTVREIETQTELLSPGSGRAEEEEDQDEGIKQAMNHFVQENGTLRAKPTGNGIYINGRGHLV
Excerpt: as §1

binding result [1]: no binding | binding result [2]: no binding | EC50 (read off the curve) [3]: ~0.3 nM | EC50 [4]: 70.3 nM | EC50 [5]: 0.28 nM
B1: Ha22-2(2,4)6.1 MAb (antibody, human IgG1, kappa, V domains shown)
VH: EVQLVESGGGLVQPGGSLRLSCAASGFTFSSYNMNWVRQAPGKGLEWVSYISSSSSTIYYADSVKGRFTISRDNAKNSLSLQMNSLRDEDTAVYYCARAYYYGMDVWGQGTTVTVSS
VL: DIQMTQSPSSVSASVGDRVTITCRASQGISGWLAWYQQKPGKAPKFLIYAASTLQSGVPSRFSGSGSGTDFTLTISSLQPEDFATYYCQQANSFPPTFGGGTKVEIKR
notes: Fully human IgG1 kappa from XenoMouse; Used biotinylated in the Western blot; also called 191P4D12 MAb Ha22-2(2,4)6.1; Ha22-(2,4)6.1 MAb
